According to patent US20210393713A1 (University of Pennsylvania, published 2021):

T1: Twin-Strep-tagged LY6A, BALB/cJ variant (GPI-anchor truncated, soluble) (mouse (BALB/cJ), UniProt P05533 27-111)
T1 construct: range 1-111; also called BALB/cJ LY6A; BABL/cJ LY6A; not shown: Twin-Strep-tag from vector pESG-IBA103
T1 sequence: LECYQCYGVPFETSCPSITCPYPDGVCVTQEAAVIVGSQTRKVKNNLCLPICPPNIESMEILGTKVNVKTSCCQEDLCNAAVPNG

B1: AAV-PHP.B V592G mutant capsid (other)
chain: MAADGYLPDWLEDNLSEGIREWWALKPGAPQPKANQQHQDNARGLVLPGYKYLGPGNGLDKGEPVNAADAAALEHDKAYDQQLKAGDNPYLKYNHADAEFQERLKEDTSFGGNLGRAVFQAKKRLLEPLGLVEEAAKTAPGKKRPVEQSPQEPDSSAGIGKSGAQPAKKRLNFGQTGDTESVPDPQPIGEPPAAPSGVGSLTMASGGGAPVADNNEGADGVGSSSGNWHCDSQWLGDRVITTSTRTWALPTYNNHLYKQISNSTSGGSSNDNAYFGYSTPWGYFDFNRFHCHFSPRDWQRLINNNWGFRPKRLNFKLFNIQVKEVTDNNGVKTIANNLTSTVQVFTDSDYQLPYVLGSAHEGCLPPFPADVFMIPQYGYLTLNDGSQAVGRSSFYCLEYFPSQMLRTGNNFQFSYEFENVPFHSSYAHSQSLDRLMNPLIDQYLYYLSRTINGSGQNQQTLKFSVAGPSNMAVQGRNYIPGPSYRQQRVSTTVTQNNNSEFAWPGASSWALNGRNSLMNPGPAMASHKEGEDRFFPLSGSLIFGKQGTGRDNVDADKVMITNEEEIKTTNPVATESYGQVATNHQSAQTLAGPFKAQAQTGWVQNQGILPGMVWQDRDVYLQGPIWAKIPHTDGNFHPSPLMGGFGMKHPPPQILIKNTPVPADPPTAFNKDKLNSFITQYSTGQVSVEIEWELQKENSKRWNPEIQYTSNYYKSNNVEFAVNTEGVYSEPRPIGTRYLTRNL
B2: AAV-PHP.eB capsid (other)
chain: MAADGYLPDWLEDNLSEGIREWWALKPGAPQPKANQQHQDNARGLVLPGYKYLGPGNGLDKGEPVNAADAAALEHDKAYDQQLKAGDNPYLKYNHADAEFQERLKEDTSFGGNLGRAVFQAKKRLLEPLGLVEEAAKTAPGKKRPVEQSPQEPDSSAGIGKSGAQPAKKRLNFGQTGDTESVPDPQPIGEPPAAPSGVGSLTMASGGGAPVADNNEGADGVGSSSGNWHCDSQWLGDRVITTSTRTWALPTYNNHLYKQISNSTSGGSSNDNAYFGYSTPWGYFDFNRFHCHFSPRDWQRLINNNWGFRPKRLNFKLFNIQVKEVTDNNGVKTIANNLTSTVQVFTDSDYQLPYVLGSAHEGCLPPFPADVFMIPQYGYLTLNDGSQAVGRSSFYCLEYFPSQMLRTGNNFQFSYEFENVPFHSSYAHSQSLDRLMNPLIDQYLYYLSRTINGSGQNQQTLKFSVAGPSNMAVQGRNYIPGPSYRQQRVSTTVTQNNNSEFAWPGASSWALNGRNSLMNPGPAMASHKEGEDRFFPLSGSLIFGKQGTGRDNVDADKVMITNEEEIKTTNPVATESYGQVATNHQSDGTLAVPFKAQAQTGWVQNQGILPGMVWQDRDVYLQGPIWAKIPHTDGNFHPSPLMGGFGMKHPPPQILIKNTPVPADPPTAFNKDKLNSFITQYSTGQVSVEIEWELQKENSKRWNPEIQYTSNYYKSNNVEFAVNTEGVYSEPRPIGTRYLTRNL

Biological target: T1, Twin-Strep-tagged LY6A, BALB/cJ variant …
Test: ELISA, AAV particles on plate-bound Twin-Strep-tagged LY6A

Binder	binding result
B1	no binding
B2	binds
